Data reported in the supplement of paper PMC9112550, “Optimization of the antimicrobial peptide Bac7 by deep mutational scanning” (BMC Biology, 2022).

Test system: Escherichia coli TOP10
Test: shrunken log2 fold change of peptide-encoding DNA abundance (4.5 h post-induction vs induction); higher = less antimicrobial activity (less host growth inhibition)
Conditions: time post-induction: 4.5 h; library: site-saturation at positions 5, 18, 19, 20
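Note: peptides expressed intracellularly from a pBAD plasmid library in pooled LB shake-flask culture, induced with 0.3% L-arabinose, DNA abundance read by NGS, three biological replicates, DESeq2 with apeglm shrinkage.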

Sequence	shrunken log2 fold change
RRIRCRPPRLPRPRPRPSRNPRP	0.155
RRIRWRPPRLPRPRPRPMIMPRP	-0.0612
RRIRFRPPRLPRPRPRPWRFPRP	0.22
RRIRMRPPRLPRPRPRPWKVPRP	-0.0135
RRIRSRPPRLPRPRPRPNHYPRP	-0.789
RRIRCRPPRLPRPRPRPPHTPRP	0.824
RRIRIRPPRLPRPRPRPHECPRP	-0.164
RRIRSRPPRLPRPRPRPSFNPRP	-0.644
RRIRDRPPRLPRPRPRPQPHPRP	0.228
RRIRERPPRLPRPRPRPKGKPRP	-0.0014
RRIRCRPPRLPRPRPRPHKEPRP	-0.334
RRIRLRPPRLPRPRPRPWFSPRP	-0.225
RRIRYRPPRLPRPRPRPGQAPRP	0.0475
RRIRFRPPRLPRPRPRPNHYPRP	-0.62
RRIRHRPPRLPRPRPRPWCRPRP	-0.352
RRIRGRPPRLPRPRPRPDRCPRP	0.286
RRIRYRPPRLPRPRPRPVAEPRP	-0.0801
RRIRCRPPRLPRPRPRPCWFPRP	-0.386
RRIRCRPPRLPRPRPRPTVAPRP	0.0998
RRIRTRPPRLPRPRPRPKTQPRP	0.19
RRIRRRPPRLPRPRPRPWKIPRP	-0.11
RRIRQRPPRLPRPRPRPPWCPRP	0.0207
RRIRKRPPRLPRPRPRPKDPPRP	0.367
RRIRNRPPRLPRPRPRPSIFPRP	-0.662
RRIRMRPPRLPRPRPRPIATPRP	-0.0165

Sequence	shrunken log2 fold change
RRIRNRPPRLPRPRPRPWIPPRP	-0.536
RRIRERPPRLPRPRPRPQFLPRP	-0.571
RRIRVRPPRLPRPRPRPIIIPRP	-0.235
RRIRRRPPRLPRPRPRPDMFPRP	0.0219
RRIRGRPPRLPRPRPRPYPIPRP	3.7
RRIRQRPPRLPRPRPRPHLRPRP	-0.0964
RRIRRRPPRLPRPRPRPRLQPRP	0.349
RRIRERPPRLPRPRPRPLVKPRP	-0.575
RRIRNRPPRLPRPRPRPRHDPRP	0.0353
RRIRSRPPRLPRPRPRPSFRPRP	-0.357
RRIRIRPPRLPRPRPRPWFQPRP	-0.0137
RRIRARPPRLPRPRPRPTCCPRP	0.653
RRIRKRPPRLPRPRPRPLHWPRP	0.59
RRIRHRPPRLPRPRPRPIALPRP	-0.355
RRIRFRPPRLPRPRPRPWAWPRP	0.174
RRIRERPPRLPRPRPRPTPHPRP	0.308
RRIRSRPPRLPRPRPRPDPAPRP	0.45
RRIRCRPPRLPRPRPRPACCPRP	0.306
RRIRWRPPRLPRPRPRPMSTPRP	-0.111
RRIRTRPPRLPRPRPRPHLEPRP	-0.0891
RRIRFRPPRLPRPRPRPYQVPRP	-0.153
RRIRHRPPRLPRPRPRPLYKPRP	-0.272
RRIRFRPPRLPRPRPRPLCCPRP	-0.205
RRIRFRPPRLPRPRPRPHREPRP	-0.0534
RRIRPRPPRLPRPRPRPLINPRP	-0.298

Sequence	shrunken log2 fold change
RRIRHRPPRLPRPRPRPFLDPRP	-0.751
RRIRYRPPRLPRPRPRPRQVPRP	-0.206
RRIRFRPPRLPRPRPRPSGKPRP	-0.0093
RRIRWRPPRLPRPRPRPNDYPRP	-1.02
RRIRARPPRLPRPRPRPSLEPRP	0.455
RRIRRRPPRLPRPRPRPCFRPRP	-0.00559
RRIRYRPPRLPRPRPRPRDIPRP	-0.0839
RRIRPRPPRLPRPRPRPKALPRP	0.461
RRIRHRPPRLPRPRPRPCEVPRP	-0.00674
RRIRYRPPRLPRPRPRPERDPRP	0.0217
RRIRMRPPRLPRPRPRPICRPRP	0.297
RRIRIRPPRLPRPRPRPVYKPRP	-0.834
RRIRRRPPRLPRPRPRPWSFPRP	0.0517
RRIRSRPPRLPRPRPRPQRMPRP	-0.133
RRIRPRPPRLPRPRPRPFLSPRP	-0.312
RRIRIRPPRLPRPRPRPDDSPRP	-0.267
RRIRRRPPRLPRPRPRPNDHPRP	0.0277
RRIRARPPRLPRPRPRPPFSPRP	0.137
RRIRHRPPRLPRPRPRPASAPRP	0.0183
RRIRHRPPRLPRPRPRPKLYPRP	0.0366
RRIRLRPPRLPRPRPRPAPHPRP	0.514
RRIRWRPPRLPRPRPRPSHCPRP	-0.689
RRIRNRPPRLPRPRPRPTDFPRP	-0.164
RRIRWRPPRLPRPRPRPIGWPRP	0.534
RRIRGRPPRLPRPRPRPSNDPRP	0.702

Sequence	shrunken log2 fold change
RRIRSRPPRLPRPRPRPLKQPRP	-0.0432
RRIRNRPPRLPRPRPRPWNAPRP	-0.255
RRIRIRPPRLPRPRPRPPPWPRP	0.508
RRIRYRPPRLPRPRPRPMGAPRP	-0.207
RRIRGRPPRLPRPRPRPGPKPRP	0.808
RRIRMRPPRLPRPRPRPHWKPRP	0.0142
RRIRMRPPRLPRPRPRPFTVPRP	-0.00884
RRIRTRPPRLPRPRPRPELSPRP	-0.0448
RRIRQRPPRLPRPRPRPHGIPRP	0.179
RRIRRRPPRLPRPRPRPCGQPRP	0.205
RRIRKRPPRLPRPRPRPVLAPRP	0.605
RRIRQRPPRLPRPRPRPWCAPRP	0.0231
RRIRQRPPRLPRPRPRPSVYPRP	-0.643
RRIRFRPPRLPRPRPRPKCDPRP	-0.136
RRIRVRPPRLPRPRPRPAYAPRP	-0.129
RRIRMRPPRLPRPRPRPQGTPRP	-0.000856
RRIRHRPPRLPRPRPRPLWLPRP	0.0573
RRIRCRPPRLPRPRPRPMCSPRP	-0.218
RRIRFRPPRLPRPRPRPNLFPRP	-0.0917
RRIRMRPPRLPRPRPRPGIEPRP	2.2
RRIRRRPPRLPRPRPRPQTQPRP	0.506
RRIRVRPPRLPRPRPRPQRRPRP	0.0241
RRIRKRPPRLPRPRPRPVSTPRP	-0.102
RRIRTRPPRLPRPRPRPISFPRP	-0.199
RRIRMRPPRLPRPRPRPEDPPRP	1.02

Sequence	shrunken log2 fold change
RRIRARPPRLPRPRPRPSAHPRP	0.101
RRIRTRPPRLPRPRPRPMLYPRP	-0.131
RRIRPRPPRLPRPRPRPSHGPRP	0.108
RRIRARPPRLPRPRPRPGVPPRP	0.727
RRIRARPPRLPRPRPRPMHYPRP	-0.0399
RRIRYRPPRLPRPRPRPLKGPRP	-0.00142
RRIRERPPRLPRPRPRPDVWPRP	0.0561
RRIRARPPRLPRPRPRPDNTPRP	-0.214
RRIRGRPPRLPRPRPRPCHMPRP	-0.00127
RRIRGRPPRLPRPRPRPICPPRP	0.114
RRIRWRPPRLPRPRPRPFNGPRP	-0.0132
RRIRNRPPRLPRPRPRPMSEPRP	-0.0254
RRIRARPPRLPRPRPRPMPMPRP	0.695
RRIRGRPPRLPRPRPRPTCWPRP	0.764
RRIRGRPPRLPRPRPRPYIQPRP	-0.411
RRIRTRPPRLPRPRPRPIIHPRP	-0.937
RRIRHRPPRLPRPRPRPDCGPRP	-0.131
RRIRVRPPRLPRPRPRPICAPRP	-0.167
RRIRFRPPRLPRPRPRPAAEPRP	0.558
RRIRHRPPRLPRPRPRPEAGPRP	0.264
RRIRIRPPRLPRPRPRPFKVPRP	-0.0829
RRIRFRPPRLPRPRPRPKYCPRP	0.124
RRIRGRPPRLPRPRPRPLYWPRP	-0.169
RRIRSRPPRLPRPRPRPTTSPRP	0.094
RRIRDRPPRLPRPRPRPAMCPRP	0.531

Sequence	shrunken log2 fold change
RRIRPRPPRLPRPRPRPNRWPRP	0.106
RRIRRRPPRLPRPRPRPIKDPRP	-0.0902
RRIRPRPPRLPRPRPRPSPIPRP	0.335
RRIRGRPPRLPRPRPRPVMPPRP	0.16
RRIRMRPPRLPRPRPRPMASPRP	0.00888
RRIRWRPPRLPRPRPRPLCFPRP	-0.101
RRIRFRPPRLPRPRPRPEITPRP	-0.208
RRIRHRPPRLPRPRPRPYNHPRP	-0.316
RRIRDRPPRLPRPRPRPDVNPRP	0.209
RRIRHRPPRLPRPRPRPCSAPRP	-0.473
RRIRMRPPRLPRPRPRPLKAPRP	0.541
RRIRIRPPRLPRPRPRPVQNPRP	-0.425
RRIRYRPPRLPRPRPRPEVPPRP	-0.0684
RRIRKRPPRLPRPRPRPVPMPRP	0.355
RRIRDRPPRLPRPRPRPDPWPRP	0.295
RRIRWRPPRLPRPRPRPMRIPRP	0.222
RRIRRRPPRLPRPRPRPPGTPRP	0.705
RRIRFRPPRLPRPRPRPMAGPRP	-0.111
RRIRERPPRLPRPRPRPPQDPRP	0.113
RRIRERPPRLPRPRPRPGFTPRP	0.00165
RRIRYRPPRLPRPRPRPRYFPRP	-0.212
RRIRWRPPRLPRPRPRPFLMPRP	-0.115
RRIRTRPPRLPRPRPRPGHIPRP	-0.289
RRIRPRPPRLPRPRPRPNASPRP	0.0199
RRIRRRPPRLPRPRPRPAWPPRP	0.446
